# Reference: PMC4155688, “Mapping the Putative G Protein-coupled Receptor (GPCR) Docking Site on GPCR Kinase 2” (The Journal of Biological Chemistry, 2014)
# B1: RlucII-GRK2 (wild type) (enzyme, human, UniProt P25098 1-689, looked up)
# chain: MADLEAVLADVSYLMAMEKSKATPAARASKKILLPEPSIRSVMQKYLEDRGEVTFEKIFSQKLGYLLFRDFCLNHLEEARPLVEFYEEIKKYEKLETEEERVARSREIFDSYIMKELLACSHPFSKSATEHVQGHLGKKQVPPDLFQPYIEEICQNLRGDVFQKFIESDKFTRFCQWKNVELNIHLTMNDFSVHRIIGRGGFGEVYGCRKADTGKMYAMKCLDKKRIKMKQGETLALNERIMLSLVSTGDCPFIVCMSYAFHTPDKLSFILDLMNGGDLHYHLSQHGVFSEADMRFYAAEIILGLEHMHNRFVVYRDLKPANILLDEHGHVRISDLGLACDFSKKKPHASVGTHGYMAPEVLQKGVAYDSSADWFSLGCMLFKLLRGHSPFRQHKTKDKHEIDRMTLTMAVELPDSFSPELRSLLEGLLQRDVNRRLGCLGRGAQEVKESPFFRSLDWQMVFLQKYPPPLIPPRGEVNAADAFDIGSFDEEDTKGIKLLDSDQELYRNFPLTISERWQQEVAETVFDTINAETDRLEARKKAKNKQLGHEEDYALGKDCIMHGYMSKMGNPFLTQWQRRYFYLFPNRLEWRGEGEAPQSLLTMEEIQSVEETQIKERKCLLLKIRGGKQFILQCDSDPELVQWKKELRDAYREAQQLVQRVPKMKNKPRSPVVELSKVPLVQRGSANGL
# notes: G protein-coupled receptor kinase 2 (GRK2), human; also called luciferase-GRK2; WT RlucII-GRK2; source: HEK293T, transfected, in living cells
# B2: RlucII-GRK2 V7P (enzyme, human, UniProt P25098 1-689, looked up)
# chain: MADLEAPLADVSYLMAMEKSKATPAARASKKILLPEPSIRSVMQKYLEDRGEVTFEKIFSQKLGYLLFRDFCLNHLEEARPLVEFYEEIKKYEKLETEEERVARSREIFDSYIMKELLACSHPFSKSATEHVQGHLGKKQVPPDLFQPYIEEICQNLRGDVFQKFIESDKFTRFCQWKNVELNIHLTMNDFSVHRIIGRGGFGEVYGCRKADTGKMYAMKCLDKKRIKMKQGETLALNERIMLSLVSTGDCPFIVCMSYAFHTPDKLSFILDLMNGGDLHYHLSQHGVFSEADMRFYAAEIILGLEHMHNRFVVYRDLKPANILLDEHGHVRISDLGLACDFSKKKPHASVGTHGYMAPEVLQKGVAYDSSADWFSLGCMLFKLLRGHSPFRQHKTKDKHEIDRMTLTMAVELPDSFSPELRSLLEGLLQRDVNRRLGCLGRGAQEVKESPFFRSLDWQMVFLQKYPPPLIPPRGEVNAADAFDIGSFDEEDTKGIKLLDSDQELYRNFPLTISERWQQEVAETVFDTINAETDRLEARKKAKNKQLGHEEDYALGKDCIMHGYMSKMGNPFLTQWQRRYFYLFPNRLEWRGEGEAPQSLLTMEEIQSVEETQIKERKCLLLKIRGGKQFILQCDSDPELVQWKKELRDAYREAQQLVQRVPKMKNKPRSPVVELSKVPLVQRGSANGL
# notes: GRK2, human; source: HEK293T, transfected, in living cells
# B3: RlucII-GRK2 L4A (enzyme, human, UniProt P25098 1-689, looked up)
# chain: MADAEAVLADVSYLMAMEKSKATPAARASKKILLPEPSIRSVMQKYLEDRGEVTFEKIFSQKLGYLLFRDFCLNHLEEARPLVEFYEEIKKYEKLETEEERVARSREIFDSYIMKELLACSHPFSKSATEHVQGHLGKKQVPPDLFQPYIEEICQNLRGDVFQKFIESDKFTRFCQWKNVELNIHLTMNDFSVHRIIGRGGFGEVYGCRKADTGKMYAMKCLDKKRIKMKQGETLALNERIMLSLVSTGDCPFIVCMSYAFHTPDKLSFILDLMNGGDLHYHLSQHGVFSEADMRFYAAEIILGLEHMHNRFVVYRDLKPANILLDEHGHVRISDLGLACDFSKKKPHASVGTHGYMAPEVLQKGVAYDSSADWFSLGCMLFKLLRGHSPFRQHKTKDKHEIDRMTLTMAVELPDSFSPELRSLLEGLLQRDVNRRLGCLGRGAQEVKESPFFRSLDWQMVFLQKYPPPLIPPRGEVNAADAFDIGSFDEEDTKGIKLLDSDQELYRNFPLTISERWQQEVAETVFDTINAETDRLEARKKAKNKQLGHEEDYALGKDCIMHGYMSKMGNPFLTQWQRRYFYLFPNRLEWRGEGEAPQSLLTMEEIQSVEETQIKERKCLLLKIRGGKQFILQCDSDPELVQWKKELRDAYREAQQLVQRVPKMKNKPRSPVVELSKVPLVQRGSANGL
# notes: as for B2
# B4: RlucII-GRK2 V11A (enzyme, human, UniProt P25098 1-689, looked up)
# chain: MADLEAVLADASYLMAMEKSKATPAARASKKILLPEPSIRSVMQKYLEDRGEVTFEKIFSQKLGYLLFRDFCLNHLEEARPLVEFYEEIKKYEKLETEEERVARSREIFDSYIMKELLACSHPFSKSATEHVQGHLGKKQVPPDLFQPYIEEICQNLRGDVFQKFIESDKFTRFCQWKNVELNIHLTMNDFSVHRIIGRGGFGEVYGCRKADTGKMYAMKCLDKKRIKMKQGETLALNERIMLSLVSTGDCPFIVCMSYAFHTPDKLSFILDLMNGGDLHYHLSQHGVFSEADMRFYAAEIILGLEHMHNRFVVYRDLKPANILLDEHGHVRISDLGLACDFSKKKPHASVGTHGYMAPEVLQKGVAYDSSADWFSLGCMLFKLLRGHSPFRQHKTKDKHEIDRMTLTMAVELPDSFSPELRSLLEGLLQRDVNRRLGCLGRGAQEVKESPFFRSLDWQMVFLQKYPPPLIPPRGEVNAADAFDIGSFDEEDTKGIKLLDSDQELYRNFPLTISERWQQEVAETVFDTINAETDRLEARKKAKNKQLGHEEDYALGKDCIMHGYMSKMGNPFLTQWQRRYFYLFPNRLEWRGEGEAPQSLLTMEEIQSVEETQIKERKCLLLKIRGGKQFILQCDSDPELVQWKKELRDAYREAQQLVQRVPKMKNKPRSPVVELSKVPLVQRGSANGL
# notes: as for B2
# B5: RlucII-GRK2 R195A (enzyme, human, UniProt P25098 1-689, looked up)
# chain: MADLEAVLADVSYLMAMEKSKATPAARASKKILLPEPSIRSVMQKYLEDRGEVTFEKIFSQKLGYLLFRDFCLNHLEEARPLVEFYEEIKKYEKLETEEERVARSREIFDSYIMKELLACSHPFSKSATEHVQGHLGKKQVPPDLFQPYIEEICQNLRGDVFQKFIESDKFTRFCQWKNVELNIHLTMNDFSVHAIIGRGGFGEVYGCRKADTGKMYAMKCLDKKRIKMKQGETLALNERIMLSLVSTGDCPFIVCMSYAFHTPDKLSFILDLMNGGDLHYHLSQHGVFSEADMRFYAAEIILGLEHMHNRFVVYRDLKPANILLDEHGHVRISDLGLACDFSKKKPHASVGTHGYMAPEVLQKGVAYDSSADWFSLGCMLFKLLRGHSPFRQHKTKDKHEIDRMTLTMAVELPDSFSPELRSLLEGLLQRDVNRRLGCLGRGAQEVKESPFFRSLDWQMVFLQKYPPPLIPPRGEVNAADAFDIGSFDEEDTKGIKLLDSDQELYRNFPLTISERWQQEVAETVFDTINAETDRLEARKKAKNKQLGHEEDYALGKDCIMHGYMSKMGNPFLTQWQRRYFYLFPNRLEWRGEGEAPQSLLTMEEIQSVEETQIKERKCLLLKIRGGKQFILQCDSDPELVQWKKELRDAYREAQQLVQRVPKMKNKPRSPVVELSKVPLVQRGSANGL
# notes: as for B2
# B6: RlucII-GRK2 V477D (enzyme, human, UniProt P25098 1-689, looked up)
# chain: MADLEAVLADVSYLMAMEKSKATPAARASKKILLPEPSIRSVMQKYLEDRGEVTFEKIFSQKLGYLLFRDFCLNHLEEARPLVEFYEEIKKYEKLETEEERVARSREIFDSYIMKELLACSHPFSKSATEHVQGHLGKKQVPPDLFQPYIEEICQNLRGDVFQKFIESDKFTRFCQWKNVELNIHLTMNDFSVHRIIGRGGFGEVYGCRKADTGKMYAMKCLDKKRIKMKQGETLALNERIMLSLVSTGDCPFIVCMSYAFHTPDKLSFILDLMNGGDLHYHLSQHGVFSEADMRFYAAEIILGLEHMHNRFVVYRDLKPANILLDEHGHVRISDLGLACDFSKKKPHASVGTHGYMAPEVLQKGVAYDSSADWFSLGCMLFKLLRGHSPFRQHKTKDKHEIDRMTLTMAVELPDSFSPELRSLLEGLLQRDVNRRLGCLGRGAQEVKESPFFRSLDWQMVFLQKYPPPLIPPRGEDNAADAFDIGSFDEEDTKGIKLLDSDQELYRNFPLTISERWQQEVAETVFDTINAETDRLEARKKAKNKQLGHEEDYALGKDCIMHGYMSKMGNPFLTQWQRRYFYLFPNRLEWRGEGEAPQSLLTMEEIQSVEETQIKERKCLLLKIRGGKQFILQCDSDPELVQWKKELRDAYREAQQLVQRVPKMKNKPRSPVVELSKVPLVQRGSANGL
# notes: as for B2
# B7: RlucII-GRK2 V7E/L8E (enzyme, human, UniProt P25098 1-689, looked up)
# chain: MADLEAEEADVSYLMAMEKSKATPAARASKKILLPEPSIRSVMQKYLEDRGEVTFEKIFSQKLGYLLFRDFCLNHLEEARPLVEFYEEIKKYEKLETEEERVARSREIFDSYIMKELLACSHPFSKSATEHVQGHLGKKQVPPDLFQPYIEEICQNLRGDVFQKFIESDKFTRFCQWKNVELNIHLTMNDFSVHRIIGRGGFGEVYGCRKADTGKMYAMKCLDKKRIKMKQGETLALNERIMLSLVSTGDCPFIVCMSYAFHTPDKLSFILDLMNGGDLHYHLSQHGVFSEADMRFYAAEIILGLEHMHNRFVVYRDLKPANILLDEHGHVRISDLGLACDFSKKKPHASVGTHGYMAPEVLQKGVAYDSSADWFSLGCMLFKLLRGHSPFRQHKTKDKHEIDRMTLTMAVELPDSFSPELRSLLEGLLQRDVNRRLGCLGRGAQEVKESPFFRSLDWQMVFLQKYPPPLIPPRGEVNAADAFDIGSFDEEDTKGIKLLDSDQELYRNFPLTISERWQQEVAETVFDTINAETDRLEARKKAKNKQLGHEEDYALGKDCIMHGYMSKMGNPFLTQWQRRYFYLFPNRLEWRGEGEAPQSLLTMEEIQSVEETQIKERKCLLLKIRGGKQFILQCDSDPELVQWKKELRDAYREAQQLVQRVPKMKNKPRSPVVELSKVPLVQRGSANGL
# notes: as for B2
# Experiments:
# [1] = target: T1, α2AAR-GFP^2 (UniProt P08913 1-465); assay: FRET or BRET; living HEK293T cells co-transfected with α2AAR-GFP^2 and RlucII-GRK2; dose-response to norepinephrine read 6 min after addition; NOR-promoted BRET fitted to biphasic (two-site) curves with a high-affinity and a low-affinity component; conditions: partners not purified
# T1 construct: α2A-adrenergic receptor; also called α2A-adrenergic receptor; source: HEK293T, transfected, in living cells; not shown: GFP^2, C-terminal (from the name α2AAR-GFP^2), kept
# T1 sequence (looked up): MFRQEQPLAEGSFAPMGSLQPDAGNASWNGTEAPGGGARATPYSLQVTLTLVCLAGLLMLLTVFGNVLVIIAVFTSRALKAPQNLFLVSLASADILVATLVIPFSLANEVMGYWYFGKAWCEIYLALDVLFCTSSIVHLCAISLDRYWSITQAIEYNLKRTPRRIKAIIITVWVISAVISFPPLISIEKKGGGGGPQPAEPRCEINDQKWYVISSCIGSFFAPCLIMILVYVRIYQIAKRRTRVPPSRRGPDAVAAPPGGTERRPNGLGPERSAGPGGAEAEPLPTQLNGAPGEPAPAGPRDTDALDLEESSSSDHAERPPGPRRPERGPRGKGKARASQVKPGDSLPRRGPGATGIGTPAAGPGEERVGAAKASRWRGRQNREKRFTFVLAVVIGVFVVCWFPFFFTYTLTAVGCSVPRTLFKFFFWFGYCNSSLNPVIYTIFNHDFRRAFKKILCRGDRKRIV
# [2] = target: T1, α2AAR-GFP^2; assay: FRET or BRET; living HEK293T cells co-transfected with α2AAR-GFP^2 (acceptor) and RlucII-GRK2 (donor); in PBS at room temperature, with or without 100 μM norepinephrine (one-point and titration: 6 min; time course); coelenterazine 400A 5 μM; net or agonist-promoted BRET; conditions: partners not purified
binder,measurement,setting,value
B1,"EC50,L of norepinephrine (low-affinity component of the biphasic BRET curve)",[1],7.9 µM
B2,percent reduction of receptor recruitment (agonist-promoted BRET) relative to WT,[2],60%
B3,percent reduction of the low-affinity BRET component relative to WT,[1],~70%
same,percent reduction of the agonist-promoted BRET relative to WT,[2],~55%
B4,percent reduction of the agonist-promoted BRET relative to WT,[2],~55%
B5,percent reduction of the low-affinity BRET component relative to WT,[1],~60%
same,percent reduction of the agonist-promoted BRET signal relative to WT,[2],60%
B6,percent inhibition of the high-agonist concentration BRET signal relative to WT,[1],74%
B7,percent reduction of receptor recruitment (agonist-promoted BRET) relative to WT,[2],69%
